{
  "source": "paper PMC4383067",
  "about": "(Acta Neuropathologica Communications, 2015)",
  "molecular_target": "Amyloid fibrils of full-length human PrP (human, UniProt P04156 23-230)",
  "assay": "static light scattering kinetics",
  "conditions": "both partners purified",
  "data": [
    {"binder": "Full-length human acetylcholinesterase (dimeric, recombinant) (enzyme, also called AChE; dimeric AChE) EGREDAELLVTVRGGRLRGIRLKTPGGPVSAFLGIPFAEPPMGPRRFLPPEPKQPWSGVVDATTFQSVCYQYVDTLYPGFEGTEMWNPNRELSEDCLYLNVWTPYPRPTSPTPVLVWIYGGGFYSGASSLDVYDGRFLVQAERTVLVSMNYRVGAFGFLALPGSREAPGNVGLLDQRLALQWVQENVAAFGGDPTSVTLFGESAGAASVGMHLLSPPSRGLFHRAVLQSGAPNGPWATVGMGEARRRATQLAHLVGCPPGGTGGNDTELVACLRTRPAQVLVNHEWHVLPQESVFRFSFVPVVDGDFLSDTPEALINAGDFHGLQVLVGVVKDEGSYFLVYGAPGFSKDNESLISRAEFLAGVRVGVPQVSDLAAEAVVLHYTDWLHPEDPARLREALSDVVGDHNVVCPVAQLAGRLAAQGARVYAYVFEHRASTLSWPLWMGVPHGYEIEFIFGIPLDPSRNYTAEEKIFAQRLMRYWANFARTGDPNEPRDPKAPQWPPYTAGAQQYVSLDLRPLEVRRGLRAQACAFWNRFLPKLLSATDTLDEAERQWKAEFHRWSSYMVHWKNQFDHYSKQDRCSDL", "values": [
      {"measurement": "stoichiometry N", "value": 1}
    ]}
  ]
}
